T1: TX1BP3, O14907
T1 sequence (O14907 10-122, limits assumed, looked up): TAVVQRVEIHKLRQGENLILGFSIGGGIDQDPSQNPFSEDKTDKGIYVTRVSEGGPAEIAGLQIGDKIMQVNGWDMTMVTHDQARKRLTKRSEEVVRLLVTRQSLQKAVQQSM

T2: ARHGAP21, Q5T5U3
T2 sequence (Q5T5U3 45-169, limits assumed, looked up): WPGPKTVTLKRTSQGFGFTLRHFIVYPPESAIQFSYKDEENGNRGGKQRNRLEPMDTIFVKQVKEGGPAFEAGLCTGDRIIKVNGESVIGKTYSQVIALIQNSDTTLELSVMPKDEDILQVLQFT

T3: PARD3B_1, Q8TEW8
T3 sequence (Q8TEW8 196-299, limits assumed, looked up): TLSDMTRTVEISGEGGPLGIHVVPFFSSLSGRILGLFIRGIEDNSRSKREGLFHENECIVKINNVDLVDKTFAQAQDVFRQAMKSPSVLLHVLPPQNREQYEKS

T4: LIN7C, Q9NUP9
T4 sequence (Q9NUP9 88-185, limits assumed, looked up): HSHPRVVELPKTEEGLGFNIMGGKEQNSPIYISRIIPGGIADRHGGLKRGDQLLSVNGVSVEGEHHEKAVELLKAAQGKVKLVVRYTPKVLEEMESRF

T5: SNTA1, Q13424
T5 sequence (Q13424 82-180, limits assumed, looked up): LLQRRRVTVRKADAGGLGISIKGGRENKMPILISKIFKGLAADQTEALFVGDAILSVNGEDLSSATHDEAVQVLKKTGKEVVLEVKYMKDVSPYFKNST

T6: DFNB31_1, Q9P202
T6 sequence (Q9P202 135-233, limits assumed, looked up): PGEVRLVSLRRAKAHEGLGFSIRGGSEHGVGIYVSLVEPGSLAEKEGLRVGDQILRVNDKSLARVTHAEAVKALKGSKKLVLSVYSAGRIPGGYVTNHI

T7: GRIP1_7, Q9Y3R0
T7 sequence (Q9Y3R0 999-1096, limits assumed, looked up): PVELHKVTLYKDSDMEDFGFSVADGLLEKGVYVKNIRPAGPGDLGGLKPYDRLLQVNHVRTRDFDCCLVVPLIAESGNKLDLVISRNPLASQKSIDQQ

T8: MPDZ_5, O75970
T8 sequence (O75970 695-796, limits assumed, looked up): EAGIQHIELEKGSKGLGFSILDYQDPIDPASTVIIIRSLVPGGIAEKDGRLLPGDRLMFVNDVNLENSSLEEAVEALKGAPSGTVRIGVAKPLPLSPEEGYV

T9: LNX2_3, Q8N448
T9 sequence (Q8N448 463-564, limits assumed, looked up): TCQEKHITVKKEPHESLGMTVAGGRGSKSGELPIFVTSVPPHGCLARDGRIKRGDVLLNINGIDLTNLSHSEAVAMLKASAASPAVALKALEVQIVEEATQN

T10: HTRA3, P83110
T10 sequence (P83110 354-453, limits assumed, looked up): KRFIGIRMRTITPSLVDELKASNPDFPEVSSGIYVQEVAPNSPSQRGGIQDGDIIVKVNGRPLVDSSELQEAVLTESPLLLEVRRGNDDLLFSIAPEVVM

T11: PDZD2_2, O15018
T11 sequence (O15018 329-429, limits assumed, looked up): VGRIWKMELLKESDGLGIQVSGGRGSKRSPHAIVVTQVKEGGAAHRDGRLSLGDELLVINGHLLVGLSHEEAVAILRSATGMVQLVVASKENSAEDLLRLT


How the values were obtained:
Experiment in all cases: holdup assay
Set-up in all cases: key: below the threshold = too weak to quantify, mostly under pKd 3.1 to 4
Conditions in all cases: plain residues with an end cap or a label only (N-terminal biotin on a linker: ado-ado)
[1] = biological target: Inadl_5, Q8NI35
Chain of Inadl_5, Q8NI35 (Q8NI35 673-780): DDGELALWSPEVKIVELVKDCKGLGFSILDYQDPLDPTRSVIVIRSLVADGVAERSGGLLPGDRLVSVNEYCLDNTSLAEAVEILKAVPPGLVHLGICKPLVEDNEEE

[2] = biological target: T1, TX1BP3, O14907
[3] = biological target: DLG2_3, Q15700
[4] = biological target: TJP1_2, Q07157
Chain of TJP1_2, Q07157 (Q07157 181-274): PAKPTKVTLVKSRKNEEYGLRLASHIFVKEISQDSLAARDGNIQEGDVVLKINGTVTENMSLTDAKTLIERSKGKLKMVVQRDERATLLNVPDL

[5] = biological target: T2, ARHGAP21, Q5T5U3
[6] = biological target: GOPC, Q9HD26
[7] = biological target: GIPC2, Q8TF65
Chain of GIPC2, Q8TF65 (Q8TF65 112-203): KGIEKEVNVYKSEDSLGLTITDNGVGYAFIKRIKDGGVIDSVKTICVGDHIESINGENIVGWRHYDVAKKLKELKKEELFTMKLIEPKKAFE

[8] = biological target: NHERF2_2, Q15599
Chain of NHERF2_2, Q15599 (Q15599 142-238): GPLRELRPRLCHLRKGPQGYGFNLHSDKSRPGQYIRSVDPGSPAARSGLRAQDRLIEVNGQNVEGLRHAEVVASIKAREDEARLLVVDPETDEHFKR

[9] = biological target: T3, PARD3B_1, Q8TEW8
[10] = biological target: T4, LIN7C, Q9NUP9
[11] = biological target: FRMPD3, Q5JV73
Chain of FRMPD3, Q5JV73 (Q5JV73 12-100): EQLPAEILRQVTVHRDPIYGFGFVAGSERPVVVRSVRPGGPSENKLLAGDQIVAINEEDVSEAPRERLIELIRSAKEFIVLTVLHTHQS

[12] = biological target: GRID2IP_2, A4D2P6
Chain of GRID2IP_2, A4D2P6 (A4D2P6 272-370): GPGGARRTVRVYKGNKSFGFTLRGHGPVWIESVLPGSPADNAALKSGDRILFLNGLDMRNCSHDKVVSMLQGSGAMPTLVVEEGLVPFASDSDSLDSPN

[13] = biological target: GORASP2, Q9H8Y8
[14] = biological target: T5, SNTA1, Q13424
[15] = biological target: T6, DFNB31_1, Q9P202
[16] = biological target: T7, GRIP1_7, Q9Y3R0
[17] = biological target: T8, MPDZ_5, O75970
[18] = biological target: Inadl_3, Q8NI35
Chain of Inadl_3, Q8NI35 (Q8NI35 359-469): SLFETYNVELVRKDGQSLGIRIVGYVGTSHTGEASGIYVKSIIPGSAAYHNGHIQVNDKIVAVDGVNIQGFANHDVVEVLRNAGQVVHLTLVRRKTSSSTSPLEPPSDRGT

[19] = biological target: Inadl_1, Q8NI35
Chain of Inadl_1, Q8NI35 (Q8NI35 113-229): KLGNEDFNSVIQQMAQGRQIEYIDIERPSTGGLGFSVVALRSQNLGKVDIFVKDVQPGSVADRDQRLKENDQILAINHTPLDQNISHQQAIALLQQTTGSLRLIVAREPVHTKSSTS

[20] = biological target: T9, LNX2_3, Q8N448
[21] = biological target: T10, HTRA3, P83110
[22] = biological target: SCRIB_2, Q14160
Chain of SCRIB_2, Q14160 (Q14160 857-960): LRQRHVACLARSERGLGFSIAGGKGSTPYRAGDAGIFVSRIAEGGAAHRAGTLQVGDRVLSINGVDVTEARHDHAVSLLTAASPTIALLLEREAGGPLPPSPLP

[23] = biological target: T11, PDZD2_2, O15018
[24] = biological target: LAP2, Q96RT1
Chain of LAP2, Q96RT1 (Q96RT1 other isoform, or with tags, fused parts or gaps): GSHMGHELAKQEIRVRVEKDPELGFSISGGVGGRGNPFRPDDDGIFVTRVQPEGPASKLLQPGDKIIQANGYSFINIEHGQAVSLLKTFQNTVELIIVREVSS

[25] = biological target: FRMPD2_1, Q68DX3
Chain of FRMPD2_1, Q68DX3 (Q68DX3 770-861): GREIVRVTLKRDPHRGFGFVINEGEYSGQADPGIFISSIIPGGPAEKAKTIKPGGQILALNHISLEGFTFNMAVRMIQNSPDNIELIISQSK

Binder | pKd [1] | pKd [2] | pKd [3] | pKd [4] | pKd [5] | pKd [6] | pKd [7] | pKd [8] | pKd [9] | pKd [10] | pKd [11] | pKd [12] | pKd [13] | pKd [14] | pKd [15] | pKd [16] | pKd [17] | pKd [18] | pKd [19] | pKd [20] | also measured
GNSVLKSTQF [SLC22A12, Q96S37] | below the threshold | below the threshold | 3.74 | below the threshold | below the threshold | below the threshold | below the threshold | 4.47 | 4.21 | 4.12 | below the threshold | below the threshold | below the threshold | below the threshold | 3.6 | below the threshold | below the threshold | below the threshold | below the threshold | below the threshold | pKd [21]: below the threshold; pKd [22]: below the threshold; pKd [23]: below the threshold; pKd [24]: below the threshold; pKd [25]: below the threshold
LPHGHSTTRV [NLGN4X, Q8N0W4] | below the threshold | below the threshold | 4.42 | below the threshold | 3.73 | 4.37 | below the threshold | 3.78 | below the threshold | below the threshold | below the threshold | 3.84 | 3.99 | 4.05 | 4.06 | below the threshold | below the threshold | below the threshold | below the threshold | below the threshold | pKd [21]: below the threshold; pKd [22]: below the threshold; pKd [23]: 3.53; pKd [24]: 3.67; pKd [25]: below the threshold

Continued, in another order:

pKd [1] | pKd [2] | pKd [3] | pKd [4] | pKd [5] | pKd [6] | pKd [7] | pKd [8] | pKd [9] | pKd [10] | pKd [11] | pKd [12] | pKd [13] | pKd [14] | pKd [15] | pKd [16] | pKd [17] | pKd [18] | pKd [19] | pKd [20] | Binder | also measured
4.86 | below the threshold | 3.96 | below the threshold | below the threshold | below the threshold | below the threshold | below the threshold | 3.83 | 3.53 | below the threshold | below the threshold | 5.14 | below the threshold | below the threshold | below the threshold | 4.07 | 5.17 | 3.69 | below the threshold | QSLNRMEYIV [JAG1, P78504] | pKd [21]: 3.87; pKd [22]: below the threshold; pKd [23]: below the threshold; pKd [24]: below the threshold; pKd [25]: 3.89
below the threshold | below the threshold | below the threshold | below the threshold | 3.59 | below the threshold | below the threshold | 3.64 | 3.58 | below the threshold | below the threshold | below the threshold | below the threshold | 3.57 | below the threshold | below the threshold | below the threshold | below the threshold | below the threshold | below the threshold | VRNLPESEEL [MYOZ3, Q8TDC0] | pKd [21]: below the threshold; pKd [22]: below the threshold; pKd [23]: below the threshold; pKd [24]: below the threshold; pKd [25]: below the threshold

Reference: publication PMC9482650, “Quantitative fragmentomics allow affinity mapping of interactomes” (Nature Communications, 2022)
